Laboratory results taken from patent publication US20150197562A1 (FRAUNHOFER GESELLSCHAFT ZUR FOERDERUNG DER ANGEWANDTEN …, published 2015).
Where two headings read alike, the source gives them in different places.

Tests used:
dsRed [1] = biological target: T1, dsRed; assay: ELISA, coated antigen, goat anti-human IgG-AP, pNPP, absorbance at 405 nm
T1 construct: also called dsRed (horizontal lines)
T1 chain: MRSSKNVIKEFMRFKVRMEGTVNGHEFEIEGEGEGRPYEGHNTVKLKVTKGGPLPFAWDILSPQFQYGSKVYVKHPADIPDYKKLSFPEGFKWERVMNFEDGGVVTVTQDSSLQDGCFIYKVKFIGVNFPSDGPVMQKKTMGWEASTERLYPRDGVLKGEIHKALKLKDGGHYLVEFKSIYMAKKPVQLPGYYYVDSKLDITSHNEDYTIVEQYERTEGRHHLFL

dsRed [2] = biological target: T1, dsRed; assay: as above

B1: recombinant huMAb-anti-MSP10.2 (antibody, V domains shown)
VH: EVQLVESGGDLVKPGGSLRLSCVVSGFRISTSAMSWVRQVPGKGLEWVSDISESGGSKDYADSVRGRFTISRDTSKNTLYLQMNSLGADDTALYYCAKSVGYFDTSGYYRWDYFDSWGQGTLVTVSS
VL: EIVLTQSPDTLSLSPGETATLSCRASQTVRRNSLAWYQQKPGQAPRLLIYGASDRATGIPDRFSGSGFGTDFTLTVSGLEPEDFAVYYCQQYGTSPRTFGQGTKLEIK
notes: Same heavy chain as huMAb-anti-MSP10.1 with a different kappa light chain; Cloned and expressed like huMAb-anti-MSP10.1 (IgG1m17,1, kappa; N. benthamiana)
B1: no binding (tested: 100 µg/ml) (dsRed [1]).

B2: recombinant huMAb-anti-MSP10.1 (antibody, V domains shown)
VH: EVQLVESGGDLVKPGGSLRLSCVVSGFRISTSAMSWVRQVPGKGLEWVSDISESGGSKDYADSVRGRFTISRDTSKNTLYLQMNSLGADDTALYYCAKSVGYFDTSGYYRWDYFDSWGQGTLVTVSS
VL: EIVLTQSPDILSLSPGERATLSCRASQALTAKYLAWYQQKPGQVPRLLIYGSSTRATGIPDRFRGSGSGTDFTLTISRLEPADSAVYYCQQYEDSPWTFGQGTKLEIK
notes: also called recombinant human anti MSP-10 antibody huMAb-anti-MSP10.1
B2: no binding (tested: 100 µg/ml) (dsRed [2]).
